Laboratory results taken from US20240262791A1 (University of California, published 2024).
Like-named read-outs stand apart in the source and are kept apart here.

What was measured:
[1] = target: T1, Mutated SARS-CoV-2 (COVID-19) S protein (RBD) E484K (SARS-CoV-2, UniProt P0DTC2 319-537); experiment: BLI, biotinylated SR4 on streptavidin sensor, spike RBD in solution, 1:1 fit
[2] = target: T2, Mutated SARS-CoV-2 (COVID-19) S protein (RBD) N501Y (SARS-CoV-2, UniProt P0DTC2 319-537); experiment: as above
T2 construct: also called N501Y: UK strain

[3] = target: T3, Mutated SARS-CoV-2 (COVID-19) S protein (RBD) N439K (SARS-CoV-2, UniProt P0DTC2 319-537); experiment: as above
[4] = target: T4, Spike RBD, WT (Example 7, Tables 4 and 2) (SARS-CoV-2, UniProt P0DTC2 319-541); experiment: as above
T4 construct: also called wildtype spike protein; Spike protein RBD

[5] = target: T5, Mutated SARS-CoV-2 (COVID-19) S protein (RBD), South African strain (K417N, E484K, N501Y) (SARS-CoV-2, UniProt P0DTC2 319-537); experiment: as above
T5 construct: also called K417N, E484K, N501Y: South Africa strain; B.1.351 lineage

[6] = target: T6, Mutated SARS-CoV-2 (COVID-19) S protein (RBD) F490L (SARS-CoV-2, UniProt P0DTC2 319-537); experiment: as above
[7] = target: T5, Mutated SARS-CoV-2 (COVID-19) S protein …
[8] = target: T1, Mutated SARS-CoV-2 (COVID-19) S protein …; experiment: BLI; KD column of Table 2 repeats Table 4
[9] = target: T2, Mutated SARS-CoV-2 (COVID-19) S protein …; experiment: BLI; KD column of Table 2 repeats Table 4
[10] = target: T3, Mutated SARS-CoV-2 (COVID-19) S protein …; experiment: BLI; KD column of Table 2 repeats Table 4
[11] = target: T4, Spike RBD, WT (Example 7, Tables 4 and …); experiment: BLI; KD column of Table 2 repeats Table 4
[12] = target: T5, Mutated SARS-CoV-2 (COVID-19) S protein …; experiment: BLI; KD column of Table 2 repeats Table 4
[13] = target: T6, Mutated SARS-CoV-2 (COVID-19) S protein …; experiment: BLI; KD column of Table 2 repeats Table 4

B1: Biotinylated SR4 (SR4 (5AzF) reacted with DBCO-biotin) (VHH)
VHH: QVQLVESGGGLVQAGGSLRLSCAASGFPVYSWNMWWYRQAPGKEREWVAAIESHGDSTRYADSVKGRFTISRDNAKNTVYLQMNSLKPEDTAVYYCYVWVGHTYYGQGTQVTVSA
notes: also called SR4 nanobody; biotin labeled SR4
B1 showed a Kd [1] of 31.8 nM, a koff [1] of 0.0034 s⁻¹ and a kon [1] of 107000 M⁻¹ s⁻¹. The Kd [2] was 30.5 nM, the koff [2] was 0.0027 s⁻¹ and the kon [2] was 88600 M⁻¹ s⁻¹. For the same binder, the Kd [3] was 59.3 nM, the koff [3] was 0.00595 s⁻¹ and the kon [3] was 100000 M⁻¹ s⁻¹. The Kd [4] was 17.9 nM, the koff [4] was 0.00226 s⁻¹ and the kon [4] was 126000 M⁻¹ s⁻¹. It also gave a Kd [5] of 57 nM, a koff [5] of 0.00406 s⁻¹ and a kon [5] of 70800 M⁻¹ s⁻¹. The Kd [6] was 42 nM, the koff [6] was 0.00476 s⁻¹ and the kon [6] was 113000 M⁻¹ s⁻¹. For the same binder, the Kd [7] was 57.4 nM, the Kd [8] was 31.8 nM and the Kd [9] was 30.5 nM. For the same binder, the Kd [10] was 59.3 nM, the Kd [11] was 17.9 nM and the Kd [12] was 57 nM. It also gave a Kd [13] of 42 nM.
